Laboratory results reported in paper doi:10.1101/2023.06.26.546492.

Target: His-SUMO-tagged full-length SARS-CoV-2 nsp14 (SARS-CoV-2) (UniProt P0DTD1)
Experiment: MST

Substance: short SARS-CoV-2 nsp10 construct (from UniProt P0DTD1 4264-4385) (domain or fragment)
- Kd: 13.9 µM
